# Data reported in patent EP4763858A1 (dated 2026).
# T1: LMP1 (Epstein-Barr virus) peptide on HLA-A*02:01 (human)
# T1 peptide: YLLEMLWRL
# B1: T cell receptor LMP1-TCR1 (TCR, V domains shown)
# Valpha: AQSVSQHNHHVILSEAASLELGCNYSYGGTVNLFWYVQYPGQHLQLLLKYFSGDPLVKGIKGFEAEFIKSKFSFNLRKPSVQWSDTAEYFCALPRWDGGYNKLIFGAGTRLAVHP
# Vbeta: DTEVTQTPKHLVMGMTNKKSLKCEQHMGHRAMYWYKQKAKKPPELMFVYSYEKLSINESVPSRFSPECPNSSLLNLHLHALQPEDSALYLCASSQEGTGELFFGEGSRLTVL
# B2: T cell receptor LMP1-TCR2 (TCR, V domains shown)
# Valpha: AQKITQTQPGMFVQEKEAVTLDCTYDTSDPSYGLFWYKQPSSGEMIFLIYQGSYDQQNATEGRYSLNFQKARKSANLVISASQLGDSAMYFCAMREVALNAGGTSYGKLTFGQGTILTVHP
# Vbeta: GAVVSQHPSWVICKSGTSVKIECRSLDFQATTMFWYRQFPKQSLMLMATSNEGSKATYEQGVEKDKFLINHASLTLSTLTVTSAHPEDSSFYICSASGAQPDDPQHFGDGTRLSIL
# Target: T1, LMP1 (Epstein-Barr virus) peptide on …
# Experiment: multimer staining
row,Binder,binding result
1,B1,recognises
2,B2,recognises
